Assay results: patent US12303551B2, “Cellular immunotherapy compositions and uses thereof” (CERO THERPEUTICS HOLDINGS, INC., priority 2018, dated 2025)

Experiments:
[1] = system: HCC827 NSCLC adenocarcinoma cells; experiment: FACS phagocytosis assay with pHrodo-red labeled HCC827 cells; type: cell-based; settings: for % phagocytosis (pHrodo-positivity): overnight co-culture with HCC827
Excerpt: FIG. 67B is a bar graph of frequency of phagocytosis among CER-modified CD4+_T cells vs. CER-modified CD8+ T cells
CD4+ or CD3+ T cells were purified from PBMCs, activated, and transduced with lentiviral vector comprising hCER104 nucleic acid. hCER104 is a human CER104 construct comprising a Tim4 binding domain, a Tim4 transmembrane domain, TLR8 engulfment signaling domain, and Dap12 engulfment signaling domain and comprises an amino acid sequence of SEQ ID NO:176. HCC827 cells harbor an EGFR mutation and treatment with EGFR inhibitor osimertinib induces exposure of phosphatidylserine on the cell surface. Transduced T cells were expanded. CER-modified T cells were co-cultured with pHrodo-red labeled HCC827 NSCLC adenocarcinoma cells overnight and evaluated by FACs for pHrodo-positive signals to detect phagocytosis of HCC827 target cells (see, FIG. 67A, box inside FACs plot indicates % phagocytosis). T cell subsets were analyzed for their capacity to phagocytosis using antibody staining. Frequency of in vitro phagocytosis among CD4+ CER-modified T cells was much higher than CD8+ CER-modified T cells (see, FIG. 67B).

[2] = system: HCC827 NSCLC adenocarcinoma cells; experiment: HCC827 viability (MTT) and phase contrast microscopy after co-culture with or without osimertinib; type: cell-based
Protocol: Assays were performed at an effector to target cell ratio of 5:1 in the presence or absence of an EGFR small molecular inhibitor (1 nM osimertinib). Co-culture of hCER104 modified CD3+ T cells was compared with co-culture of purified hCER104 modified CD4+ T cells. Cell viability was quantified using 3-(4,5-dimethylthiazol-2-yl)-2,5-diphenyltetrazolium bromide (MTT) assay.
Specific target cell killing of HCC827 observed in hCER104 modified T cells in the presence of osimertinib.
hCER104 modified CD3+ T cells and hCER104 modified CD4+ T cells were co-cultured with HCC827 NSCLC adenocarcinoma cells treated for 48 hours with or without 1 nM osimertinib at an effector to target cell ratio of 5:1. Mock transduced T cells were used as control.

HCC827 NSCLC cells = experiment: FACS phagocytosis assay of TAMRA-SE labeled HCC827 cells with or without bafilomycin; type: cell-based; settings: CER-modified T cells, osimertinib treated HCC827, FACS
Excerpt: FIGS. 73A-73B show ablation of CER-induced phagocytosis by bafilomycin, an inhibitor of phagolysosome V-ATPase. CER104-modified CD4+ T cells and mock transduced CD4+ T cells (control) were co-cultured with HCC827 cells that were labeled with TAMRA-SE fluorescent dye and treated with osimertinib. Phagocytosis was quantified by FACs.
T cells were transduced with lentiviral vector comprising hCER104 nucleic acid as described in Example 6. hCER104 modified T cells were co-cultured with HCC827 adenocarcinoma cells with or without osimertinib. […] FACs plots from in vitro phagocytosis assays in hCER104 modified T cells or mock transduced control T cells are shown in FIG. 73B.

[3] = system: HPV+ SCC152/luceriferase+ cells; experiment: SCC152/luciferase xenograft in NSG mice, bioluminescence imaging; type: in vivo; settings: CER CD4+ T cells added 1:1 to HPV E7 CD8+ T cells
Protocol: HPV+ SCC152 engrafted NSG mice were treated with HPV E7 TCR modified CD8+ T cells+CD4+ T cells (mock transduced), HPV E7 TCR modified CD8+ T cells+hCER104 modified CD4+ T cells, or untreated. FIG. 74B is a graph of mean values of bioluminescence signal intensities obtained for treatment group.
HPV+ SCC152/luceriferase^+ cells were engrafted in NSG mice. Once tumors were established, mice were treated with HPV E7 specific TCR (SEQ ID NO:84) modified CD8+ T cells+mock transduced CD4+ T cells, HPV E7 specific TCR modified CD8+ T cells+hCER104 (SEQ ID NO:176) modified CD4+ T cells, or untreated (n=5 per treatment group). HPV E7 CD8+ T cells and hCER104 CD4+ T cells were administered at a 1:1 ratio. Tumor volume was measured over time by bioluminescence imaging (see, FIGS. 74A-74B).

B1: hCER104: human CER104 construct: Tim4 binding domain, Tim4 transmembrane domain, TLR8 and Dap12 engulfment signaling domains; SEQ ID NO:176 (protein)
chain: ETVVTEVLGHRVTLPCLYSSWSHNSNSMCWGKDQCPYSGCKEALIRTDGMRVTSRKSAKYRLQGTIPRGDVSLTILNPSESDSGVYCCRIEVPGWFNDVKINVRLNLQRASTTTHRTATTTTRRTTTTSPTTTRQMTTTPAALPTTVVTTPDLTTGTPLQMTTIAVFTTANTCLSLTPSTLPEEATGLLTPEPSKEGPILTAESETVLPSDSWSSVESTSADTVLLTSKESKVWDLPSTSHVSMWKTSDSVSSPQPGASDTAVPEQNKTTKTGQMDGIPMSMKNEMPISQLLMIIAPSLGFVLFALFVAFLHHLFYWDVWFIYNVCLAKVKGYRSLSTSQTFYDAYISYDTKDASVTDWVINELRYHLEESRDKNVLLCLEERDWDPGLAIIDNLMQSINQSKKTVFVLTKKYAKSWNFKTAFYLALQRLMDENMDVIIFILLEPVLQHSQYLRLRQRICKSSILQWPDNPKAEGLFWQTLRNVVLTENDSRYNNMYVDSIKQYYFLGRLVPRGRGAAEAATRKQRITETESPYQELQGQRSDVYSDLNTQRPYYK
modifications: hCER104
[1]; CER-modified CD4+ T cells
  % phagocytosis (pHrodo-positivity): 42.0%
[1]; CER-modified CD8+ T cells
  % phagocytosis (pHrodo-positivity): 9.81%
[1]; HCC827 target cells
  frequency of in vitro phagocytosis, CD4+ versus CD8+ CER-modified T cells: much higher
[2]; 48 hours co-culture, CD4+ and CD3+ T cells, in the presence of osimertinib
  killing of HCC827 cells, phase contrast microscopy: specific cell killing
[2]; 48 hours, effector to target 5:1, with or without 1 nM osimertinib
  HCC827 cell viability (MTT), CD4+ versus CD3+ CER-modified T cells: lower cell viability
HCC827 NSCLC cells
  phagocytosis of fluorescent dye-labeled HCC827 cells: exhibited phagocytosis
[3]
  tumor killing (bioluminescence): enhanced tumor killing in vivo
